Results taken from patent publication US20200247894A1 (Regeneron, published 2020).
Changes are numbered by the printed parent chain.

B1: H4H13541P (antibody, human IgG4 S228P, kappa, V domains shown)
VH: EVQLVESGGGVVRPGGSLRLSCAASGFIFDDYDMSWVRQPPGRGLEWVSGIDWFGGTRGYADSMKGRFTISRDNAKNSLYLQMNSLRVEDTAFYYCARGGAIVGAVTPFDYWGQGTLVTVSS
VL: DIQMTQSPSSLSASVGNRVTLSCRASQSINTYLSWYQQRPGKAPKLLIYAASSLQSGVPSRFSGSGAGTDFTLTISSLQPEDFATYYCQQSYSAPLTFGGGTKVEIKR
notes: fully human anti-IL2Rgamma mAb, human IgG4 Fc
B2: H4H13545P2 (antibody, human IgG4 S228P, kappa, V domains shown)
VH: QVQLQQSGPGLVKPSQTLSLTCDISGDSVSSNIATWNWIRQSPSRGLEWLGRTYYRSKWYKDYAVSVKSRITINPDTSKNQFSLQVNSVTPEDTAVYYCARMTGPRYYFEYWGQGTLVTVSS
VL: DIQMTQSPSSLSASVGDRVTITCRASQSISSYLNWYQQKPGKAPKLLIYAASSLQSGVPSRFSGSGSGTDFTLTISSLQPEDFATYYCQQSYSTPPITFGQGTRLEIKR
notes: as for B1
B3: H4H13544P2 (antibody, human IgG4 S228P, kappa, V domains shown)
VH: QLQLQESGPGLVKPSETLSLTCTVSGGSISIKNYYWGWIRQPPGKGLEWIGSIYYSGTTYYNPSLKSRVTISVDTSKNQFSLKLSSVTAADTAVYHCARHGYSYGHGWFDPWGQGTLVTVSS
VL: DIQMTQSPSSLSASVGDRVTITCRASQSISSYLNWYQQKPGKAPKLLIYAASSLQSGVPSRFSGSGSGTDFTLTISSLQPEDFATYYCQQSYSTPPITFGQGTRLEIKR
notes: as for B1
B4: H4H13538P (antibody, human IgG4 S228P, kappa, V domains shown)
VH: EVQLVESGGGLVQPGGSLGLSCAASGFTFSNYAMSWVRQAPGKGLEWVSAVSGGGGGTYYADSVKGRFTISRDNSKNTVLLQMNSLRAEDTAVYYCARGRTGGLDYWGPGTLVTVSS
VL: DVVMTQSPLSLPVIFGQPASISCRSSQSLVDSDGNTYLNWLQQRPGQSPRRLIYEVSNRDSGVPDRFSGSGSGTDFTLTISRVEAEDVGIYYCMQGTRWPPTFGGGTKVEIKR
notes: as for B1
B5: H4H12859P (antibody, human IgG4 S228P, kappa, V domains shown)
VH: QVQLVQSGAEVKKPGASVRVSCKASGYTFTDYDIHWVRQAPGHGLEWMGWINPNSGGTNYAQKFQGRVTMTRDTSISTVYMDLSRLRSDDTAVYYCARADYSSSYYYYGMDVWGQGTTVTVSS
VL: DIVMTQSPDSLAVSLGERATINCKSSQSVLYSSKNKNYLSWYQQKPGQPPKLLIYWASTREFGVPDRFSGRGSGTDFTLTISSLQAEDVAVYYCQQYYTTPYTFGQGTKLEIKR
notes: fully human anti-IL2Rg antibody, human IgG4
B6: H4H12858P (antibody, human IgG4 S228P, kappa, V domains shown)
VH: EVQLVESGGDLVQPGGSLRLSCTASGFIFRNYAMNWVRQAPGKGLEWLSGILGSNDNTYYVDSVKGRFTISRDNSRNTLYLQMNSLRAEDSAVYYCAKGDAGGFDYWGQGTLVTVSS
VL: B4 VL with F15L, D31S, L41F, E55K, T79K, I90A, T97S, R98Y, G105Q, V109L
notes: fully human anti-IL2Rg antibody, human IgG4; also called REGN9433

Target: T1, Human IL2Rγ extracellular domain expressed with a C-terminal mouse IgG2a Fc tag (human)
T1 construct: whole entry is the Fc-fused construct; also called hIL-2Rg-mFc
T1 chain: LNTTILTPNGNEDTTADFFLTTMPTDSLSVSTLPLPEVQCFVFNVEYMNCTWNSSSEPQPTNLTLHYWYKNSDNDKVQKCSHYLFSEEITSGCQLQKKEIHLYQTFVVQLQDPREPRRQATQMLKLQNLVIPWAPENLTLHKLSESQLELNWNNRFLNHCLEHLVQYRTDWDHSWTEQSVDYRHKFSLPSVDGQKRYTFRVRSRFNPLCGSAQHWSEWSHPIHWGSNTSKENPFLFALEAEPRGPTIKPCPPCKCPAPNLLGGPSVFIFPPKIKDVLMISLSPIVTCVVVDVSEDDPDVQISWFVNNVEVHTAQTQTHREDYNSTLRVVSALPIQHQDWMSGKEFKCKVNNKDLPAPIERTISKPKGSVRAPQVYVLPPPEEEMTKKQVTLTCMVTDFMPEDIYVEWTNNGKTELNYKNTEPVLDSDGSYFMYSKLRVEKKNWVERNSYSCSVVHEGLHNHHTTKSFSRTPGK
Test: SPR Biacore 4000, anti-hFc-captured mAb, 25 C
In short: (§1)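 Surface plasmon resonance with anti-hFc-captured antibodies in pH 7.4 HEPES-buffered saline containing EDTA and Tween-20; kinetic constants from a 1:1 model.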

Binder	50 nM Ag Bound [RU]	Kd [nM]	koff [s⁻¹]	kon [M⁻¹ s⁻¹]	t1/2 [min]
B1	24	1.8	8.84e-05	49200	131
B2	64	12	0.00211	175000	5
B3	63	2.21	0.000246	111000	47
B4	38	0.996	0.000116	117000	99

Target: T2, Mouse IL2Rγ extracellular domain expressed with a C-terminal myc-myc-hexahistidine tag (mouse)
T2 construct: whole entry is the tagged construct; also called mIL-2Rg-MMH
T2 chain: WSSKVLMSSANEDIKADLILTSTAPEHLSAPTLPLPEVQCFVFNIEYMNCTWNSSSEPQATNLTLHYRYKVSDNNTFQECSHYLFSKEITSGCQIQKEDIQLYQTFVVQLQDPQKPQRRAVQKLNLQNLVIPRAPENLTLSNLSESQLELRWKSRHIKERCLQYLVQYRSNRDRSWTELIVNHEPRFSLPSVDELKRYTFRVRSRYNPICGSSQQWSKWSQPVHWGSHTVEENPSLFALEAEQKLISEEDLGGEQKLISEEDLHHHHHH
Test: SPR Biacore 4000, anti-hFc-captured mAb, 25 C
In short: as §1

Binder	100 nM Ag Bound [RU]	binding result
B1	5	no binding (tested: 100 nM)
B2	4	no binding (tested: 100 nM)
B3	3	no binding (tested: 100 nM)
B4	4	no binding (tested: 100 nM)

Target: T3, Rat IL2Rγ extracellular domain expressed with a C-terminal myc-myc-hexahistidine tag (rat)
T3 construct: whole entry is the tagged construct; also called rIL-2Rg-MMH; rat IL-2Rg-MMH
T3 chain: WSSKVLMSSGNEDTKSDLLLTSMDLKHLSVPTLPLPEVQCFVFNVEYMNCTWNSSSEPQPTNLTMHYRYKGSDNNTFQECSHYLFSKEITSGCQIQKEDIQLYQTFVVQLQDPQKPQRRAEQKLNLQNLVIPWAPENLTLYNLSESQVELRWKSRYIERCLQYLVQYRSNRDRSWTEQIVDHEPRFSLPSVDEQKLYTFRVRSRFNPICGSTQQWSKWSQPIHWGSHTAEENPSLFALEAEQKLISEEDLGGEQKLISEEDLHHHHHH
Test: SPR Biacore 4000, anti-hFc-captured mAb, 25 C
In short: as §1

Binder	100 nM Ag Bound [RU]	binding result
B1	4	no binding (tested: 100 nM)
B2	4	no binding (tested: 100 nM)
B3	3	no binding (tested: 100 nM)
B4	3	no binding (tested: 100 nM)

Target: T4, Macaca fascicularis IL2Rγ extracellular domain expressed with a C-terminal myc-myc-hexahistidine tag (Macaca fascicularis)
T4 construct: whole entry is the tagged construct; also called mfIL-2Rg-MMH
T4 chain: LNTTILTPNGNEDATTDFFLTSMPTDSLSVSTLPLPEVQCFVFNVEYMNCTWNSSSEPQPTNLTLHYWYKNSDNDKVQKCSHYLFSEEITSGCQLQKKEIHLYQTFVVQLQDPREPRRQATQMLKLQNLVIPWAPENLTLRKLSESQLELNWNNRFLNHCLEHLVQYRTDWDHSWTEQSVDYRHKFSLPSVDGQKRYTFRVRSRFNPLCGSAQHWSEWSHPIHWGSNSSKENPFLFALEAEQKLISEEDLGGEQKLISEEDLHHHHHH
Test: SPR Biacore 4000, anti-hFc-captured mAb, 37 C
In short: as §1

Binder	100 nM Ag Bound [RU]	Kd [nM]	koff [s⁻¹]	kon [M⁻¹ s⁻¹]	t1/2 [min]
B1	111	7.1	0.000755	106000	15
B2	21	88.6	0.0129	146000	0.9
B3	60	52.1	0.00612	118000	1.9
B4	115	5.5	0.000932	169000	12

Target: T1, Human IL2Rγ extracellular domain …
Test: SPR Biacore 4000, anti-hFc-captured mAb, 37 C
In short: as §1

Binder	50 nM Ag Bound [RU]	Kd [nM]	koff [s⁻¹]	kon [M⁻¹ s⁻¹]	t1/2 [min]
B1	42	2.18	0.000122	56000	94
B2	59	30	0.00737	246000	1.6
B3	88	6.33	0.000801	126000	14
B4	70	1.29	0.000187	144000	62

Target: T2, Mouse IL2Rγ extracellular domain …
Test: SPR Biacore 4000, anti-hFc-captured mAb, 37 C
In short: as §1

Binder	100 nM Ag Bound [RU]
B1	4
B2	2
B3	4
B4	5

Target: T3, Rat IL2Rγ extracellular domain …
Test: SPR Biacore 4000, anti-hFc-captured mAb, 37 C
In short: as §1

Binder	100 nM Ag Bound [RU]
B1	5
B2	3
B3	4
B4	5

Each binder was assayed against T5, mouse IL-2Rγ endogenously expressed on MC/9 cells (mouse, UniProt P34902 23-369) (assay: flow cytometry, 10 ug/ml antibody, MC/9 cells (endogenous mouse IL-2Rg)).
T5 construct: whole, on cells
T5 sequence (looked up): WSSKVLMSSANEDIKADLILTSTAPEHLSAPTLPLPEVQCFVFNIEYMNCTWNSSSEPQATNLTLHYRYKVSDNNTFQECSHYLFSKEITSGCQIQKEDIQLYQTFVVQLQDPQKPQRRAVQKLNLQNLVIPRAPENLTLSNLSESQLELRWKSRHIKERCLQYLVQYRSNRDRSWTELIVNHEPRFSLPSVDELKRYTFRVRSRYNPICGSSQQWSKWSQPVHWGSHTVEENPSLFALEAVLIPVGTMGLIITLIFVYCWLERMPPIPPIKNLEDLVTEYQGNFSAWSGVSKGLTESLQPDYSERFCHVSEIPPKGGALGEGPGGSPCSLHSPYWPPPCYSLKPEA
Method: (§2) For flow cytometry analyses, the cells were pre-incubated with mouse IgG at 100 μg/ml for 15 minutes at room temperature (RT) to block the binding of the antibodies to Fc receptors. […] Cells were washed, fixed using BD CytoFix™ (BD biosciences, #554655) and analyzed on an IQue® (Intellicyt®) Flow Cytometer or Accuri Flow cytometer (BD). […] The results were analyzed using ForeCyt® (IntelliCyt®) software to determine the geometric means of fluorescence (MFI) for viable cells. Binding ratios were calculated by normalizing the MFI of the test sample by the MFI of the unstained sample.

Binder	Binding Ratio (Sample over unstained MFIs)	Raw MFI [MFI]
B5	1	201
B6	1	199

The binders below were run against T6, human IL-2Rγ endogenously expressed on NK-92 and Jurkat cells (human, UniProt P31785 23-369) (assay: flow cytometry, 10 ug/ml antibody, NK-92 cells (endogenous human IL-2Rg)).
T6 construct: whole, on cells; on cells it stands with the other receptor subunits of the cell line; also called IL-2Rg; CD132
T6 sequence (looked up): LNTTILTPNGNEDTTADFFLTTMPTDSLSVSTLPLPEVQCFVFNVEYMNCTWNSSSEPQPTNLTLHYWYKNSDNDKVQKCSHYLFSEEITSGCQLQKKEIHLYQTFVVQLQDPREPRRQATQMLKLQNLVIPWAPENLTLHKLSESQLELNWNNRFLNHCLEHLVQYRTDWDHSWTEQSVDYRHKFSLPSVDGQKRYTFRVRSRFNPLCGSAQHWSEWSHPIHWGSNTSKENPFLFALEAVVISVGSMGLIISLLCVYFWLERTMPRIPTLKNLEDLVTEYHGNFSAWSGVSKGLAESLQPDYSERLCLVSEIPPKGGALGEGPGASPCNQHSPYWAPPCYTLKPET
Method: as §2

Binder	Binding Ratio (Sample over unstained MFIs)	Raw MFI [MFI]
B5	1	176
B6	2	228

What follows are binders tested against T6, human IL-2Rγ endogenously expressed on … (assay: flow cytometry, 10 ug/ml antibody, Jurkat cells (endogenous human IL-2Rg)).
Method: as §2

Binder	Binding Ratio (Sample over unstained MFIs)	Raw MFI [MFI]
B5	1	89
B6	1	99
